According to article PMC6323120:

Target: T1, TNFR1, P19438
T1 chain: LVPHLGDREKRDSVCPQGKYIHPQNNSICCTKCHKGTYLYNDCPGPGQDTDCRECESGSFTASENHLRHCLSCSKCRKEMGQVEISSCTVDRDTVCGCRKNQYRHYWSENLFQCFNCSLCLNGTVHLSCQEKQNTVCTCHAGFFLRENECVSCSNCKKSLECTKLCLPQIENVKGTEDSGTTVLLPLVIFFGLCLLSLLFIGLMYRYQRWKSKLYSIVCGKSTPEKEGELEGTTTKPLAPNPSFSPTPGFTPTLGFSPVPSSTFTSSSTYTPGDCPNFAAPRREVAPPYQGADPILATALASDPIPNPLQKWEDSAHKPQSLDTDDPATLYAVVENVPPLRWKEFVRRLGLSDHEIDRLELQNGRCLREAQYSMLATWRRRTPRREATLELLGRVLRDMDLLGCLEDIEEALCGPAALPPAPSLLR
Assay: quantitative single-molecule localization microscopy (dSTORM/PALM); TNFR1 in the plasma membrane at physiological cell surface expression levels, upon TNF binding
Details: remark: other sources report otherwise

stoichiometry N: > 3
B1: TNFR1, P19438 30-455 (receptor)
chain: T1 chain
